{"source": "patent US12187807B2", "about": "“Antibody molecules to C5AR1 and uses thereof” (Visterra, Inc., priority 2020, dated 2025)", "key": {"[1]": {"details": "oral administration, human C5aR1 transgenic mice; cited from earlier work"}, "C5aR1": {"target": "T1, C5aR1 (Homo sapiens, UniProt P21730)", "T1 sequence (P21730 1-350)": "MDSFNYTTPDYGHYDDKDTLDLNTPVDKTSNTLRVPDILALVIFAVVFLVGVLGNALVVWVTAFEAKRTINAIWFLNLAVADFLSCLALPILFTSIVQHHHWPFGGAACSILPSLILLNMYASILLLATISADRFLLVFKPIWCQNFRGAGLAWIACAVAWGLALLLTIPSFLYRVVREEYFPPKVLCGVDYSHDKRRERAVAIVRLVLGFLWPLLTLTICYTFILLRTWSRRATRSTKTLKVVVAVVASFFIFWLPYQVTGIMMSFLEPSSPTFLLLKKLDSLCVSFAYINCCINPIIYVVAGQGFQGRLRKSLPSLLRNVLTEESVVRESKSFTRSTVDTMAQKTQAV", "details": "cited from earlier work"}, "[2]": {"target": "T2, human C5aR1 transiently expressed on the surface of Expi293 cells (Homo sapiens, UniProt P21730, K279N)", "T2 construct": "expressed in transfected cells; host or cells: Expi293 cells, transient", "T2 sequence (P21730 with tags, fused parts or gaps K279N limits assumed)": "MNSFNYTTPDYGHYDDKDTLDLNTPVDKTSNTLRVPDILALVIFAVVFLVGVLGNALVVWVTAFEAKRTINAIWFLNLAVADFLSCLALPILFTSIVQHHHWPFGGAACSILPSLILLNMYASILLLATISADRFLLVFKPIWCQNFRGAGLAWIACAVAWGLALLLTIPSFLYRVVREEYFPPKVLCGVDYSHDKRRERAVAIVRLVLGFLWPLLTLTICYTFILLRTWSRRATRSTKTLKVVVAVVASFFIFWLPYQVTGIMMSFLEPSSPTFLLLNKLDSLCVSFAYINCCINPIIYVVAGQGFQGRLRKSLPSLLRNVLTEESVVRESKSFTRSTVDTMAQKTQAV", "test": "Cell surface binding (flow cytometry), Expi293 cells transiently expressing human C5aR1", "details": "staining with 100 nM of antibody", "protocol": "(§1) Follow up screening to ensure specificity was performed by measuring cell surface binding to cells expressing, for example, human C5aR1, human C5aR2, mouse C5aR1, and control cells that were mock transfected. Briefly, cell surface binding was performed on various C5aR1 expressing cell lines (transiently expressed Expi293 cells, stable C5aR1-U937 cells, and neutrophils isolated from whole blood). Briefly, a titration of antibody diluted in flow buffer (1×PBS with 2% fetal bovine serum) was incubated with cells for 1 hour at 4° C. Cells were washed twice with flow buffer. Anti-human-APC secondary antibody was diluted 1:400 in flow buffer and incubated with cells for 30 minutes. Cells were washed twice with flow buffer and resuspended in 100 μL of flow buffer. Fluorescence was measured using the iQue Screen Plus flow cytometer."}, "[3]": {"tested_on": "control cells that were mock transfected", "test": "Cell surface binding (flow cytometry), mock transfected Expi293 control cells", "details": "staining with 100 nM of antibody", "protocol": "as §1"}}, "data": [{"molecule": "Cc1ccc(NC(=O)[C@H]2CCCN(C(=O)c3c(C)cccc3F)[C@H]2c2ccc(NC3CCCC3)cc2)cc1C(F)(F)F", "note": "[Avacopan, avacopan]", "values": [{"measurement": "severity of anti-MPO NCGN", "setting": "[1]", "result": "reduced the severity of anti-MPO NCGN"}]}, {"molecule": "C5a: complement component 5a, agonist of C5aR1 (protein, UniProt P01031 678-751, looked up, C5a anaphylatoxin, complement component 5a, agonist of C5aR1) C5a anaphylatoxin: TLQKKIEEIAAKYKHSVVKKCCYDGACVNNDETCEQRAARISLGPRCIKAFTECCVVASQLRANISHKDMQLGR", "values": [{"measurement": "on rate for C5aR1", "setting": "C5aR1", "result": "about 4.8e8 M^−1min^−1"}]}, {"molecule": "Clone_11v2 (antibody, V domains shown) VH: QVQLQQSGPELVKPGASVKISCKASGYSFSSSWMNWVKQRPGKGLEWIGRISPGDGDTRYSGKFKGKATLTADKSSSTAYMQVTSLTSEDSAIYFCVRFLITSTRYVMDYWGQGTTVTVSS VL: DVVMTQTPLSLPVSLGDQASISCRSSQSLVHSNGNTYLHWYLQKPGQSPKLLIYKVSNRFSGVPDRFSGSGSGTDFTLKISRVEAEDLGVYFCSQSTLVPPTFGGGTKLEIK", "values": [{"measurement": "Cell surface binding, Human C5aR1, geometric mean fluorescent intensity", "setting": "[2]", "result": "310,187"}, {"measurement": "Cell surface binding, Mock transfection, geometric mean fluorescent intensity", "setting": "[3]", "result": "4,976 Clone_454"}]}]}
